In assay [1] the target is T1, rHuman Erythropoietin R/Fc Chimera, CF (R&D Systems Cat#963-ER) (human, UniProt P19235 25-250).
T1 construct: Bought Fc chimera; also called EPO R/Fc; Epo R; Fc part of the bought chimera not given
T1 sequence: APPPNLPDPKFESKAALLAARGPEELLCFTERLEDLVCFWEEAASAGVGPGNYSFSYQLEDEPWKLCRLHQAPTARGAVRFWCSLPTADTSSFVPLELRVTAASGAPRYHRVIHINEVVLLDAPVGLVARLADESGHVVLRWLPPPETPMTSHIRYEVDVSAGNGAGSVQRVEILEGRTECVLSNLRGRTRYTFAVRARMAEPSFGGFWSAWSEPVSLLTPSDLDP
Nature of the assay: ECL (MSD Multi-Spot) binding assay, antigen spotted on plate; Fab 6 nM; blank spot 191.

In assay [2] the target is T2, Recombinant Human DLL4 (R&D Systems Cat#1506-D4/CF) (human, UniProt Q9NR61 27-524).
T2 construct: Bought recombinant protein; also called delta-like protein 4; rHuman DLL4
Described as above.

Assay [3] deals with T3, rHuman ErbB2/Fc Chimera, CF (R&D Systems Cat#1129-ER) (human, UniProt P04626 23-652).
T3 construct: Bought Fc chimera; also called HER2/neu; human epidermal growth factor 2 receptor; Fc part of the bought chimera not given
Described as above.

The target of assay [4] is T4, rHuman EGF R/Fc Chimera, CF (R&D Systems Cat#344-ER) (human, UniProt P00533 25-645).
T4 construct: Bought Fc chimera; also called epidermal growth factor receptor; Fc part of the bought chimera not given
Described as above.

For assay [5], the target named is T5, rHuman Notch-1/Fc Chimera, CF (R&D Systems Cat#3647-TK) (human, UniProt P46531 19-526).
T5 construct: Bought Fc chimera; Fc part of the bought chimera not given
The assay is described as above.

The target of assay [6] is T6, rHuman IGF-1 sR (IGF-1 sR), CF (R&D Systems Cat#391-GR) (human, UniProt P08069 31-932).
T6 construct: Bought soluble receptor; also called insulin-like growth factor-1 soluble receptor; IGF-R1
The assay is described as above.

In assay [7] the target is T1, rHuman Erythropoietin R/Fc Chimera, CF …. Nature of the assay: ECL (MSD Multi-Spot) binding assay, antigen spotted on plate; Fab 60 nM; blank spot 237.
Assay [8] deals with T2, Recombinant Human DLL4 (R&D Systems …). The assay is described as above.
The target of assay [9] is T7, rHuman CD44/Fc Chimera, CF (R&D Systems Cat#3660-CD) (human, UniProt P16070 21-220).
T7 construct: Bought Fc chimera; Fc part of the bought chimera not given
Described as above.

In assay [10] the target is T8, rHuman P-Cadherin/Fc Chimera, CF (R&D Systems Cat#861-PC) (human, UniProt P22223 108-654).
T8 construct: Bought Fc chimera; also called CDH3; Fc part of the bought chimera not given
The description is as above.

The target in assay [11] is T9, rHuman Notch-1/Fc Chimera, CF (R&D Systems Cat#3647-TK) (human, UniProt P46531 19-526).
T9 construct: Bought Fc chimera; Fc part of the bought chimera not given
Nature of the assay: MSD ECL titration, Fab 2.3 nM, blank 234.

For assay [12], the target named is T10, rHuman CD44/Fc Chimera, CF (R&D Systems Cat#3660-CD) (human, UniProt P16070 21-220).
T10 construct: Bought Fc chimera; Fc part of the bought chimera not given
Nature of the assay: MSD ECL titration, Fab 2.3 nM, blank 234.

Assay [13] has as its target T11, rHuman IGF-1 sR (insulin-like growth factor-1 soluble receptor), CF (R&D Systems Cat#391-GR) (human, UniProt P08069 31-932).
T11 construct: Bought soluble receptor; also called IGF-R1
Nature of the assay: MSD ECL titration, Fab 2.3 nM, blank 234.

In assay [14] the target is T12, rHuman P-Cadherin/Fc Chimera, CF (R&D Systems Cat#861-PC) (human, UniProt P22223 108-654).
T12 construct: Bought Fc chimera; Fc part of the bought chimera not given
Nature of the assay: MSD ECL titration, Fab 2.3 nM, blank 234.

Assay [15] addresses T13, rHuman Erythropoietin R/Fc Chimera, CF (R&D Systems Cat#963-ER) (human, UniProt P19235 25-250).
T13 construct: Bought Fc chimera; also called EPO R/Fc; EPOR; Fc part of the bought chimera not given
T13 sequence: T1 sequence
Nature of the assay: MSD ECL titration, Fab 2.3 nM, blank 234.

Assay [16] concerns the target T14, Recombinant Human DLL4 (R&D Systems Cat#1506-D4/CF) (human, UniProt Q9NR61 27-524).
T14 construct: Bought recombinant protein; also called rHuman DLL4; delta-like protein 4
Nature of the assay: MSD ECL titration, Fab 2.3 nM, blank 234.

The target of assay [17] is T15, rHuman ErbB2/Fc Chimera, CF (R&D Systems Cat#1129-ER) (human, UniProt P04626 23-652).
T15 construct: Bought Fc chimera; also called HER2/neu; Fc part of the bought chimera not given
Nature of the assay: MSD ECL titration, Fab 2.3 nM, blank 234.

Assay [18] concerns the target T16, rHuman EGF R/Fc Chimera, CF (R&D Systems Cat#344-ER) (human, UniProt P00533 25-645).
T16 construct: Bought Fc chimera; Fc part of the bought chimera not given
Nature of the assay: MSD ECL titration, Fab 2.3 nM, blank 234.

For assay [19], the target named is T17, rHuman HGF R/c-MET/Fc Chimera, CF (R&D Systems Cat#358-MT/CF) (human, UniProt P08581 25-932).
T17 construct: Bought Fc chimera; also called HGF R/Fc; Fc part of the bought chimera not given
Nature of the assay: MSD ECL titration, Fab 2.3 nM, blank 234.
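Also: blank spot per well as comparator with Hit at signal to blank ratio of 4 or more.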

B1: Fab VH5-51_IGHD5-18*01>3_IGHJ4*01 & V3-4_IGLJ1*01 (Fab, V domains shown)
VH: EVQLVQSGAEVKKPGESLKISCKGSGYSFTSYWIGWVRQMPGKGLEWMGIIYPGDSDTRYSPSFQGQVTISADKSISTAYLQWSSLKASDTAMYYCARRGYSYGYDYFDYWGQGTLVTVSS
VL: QTVVTQEPSFSVSPGGTVTLTCGLSSGSVSTSYYPSWYQQTPGQAPRTLIYSTNTRSSGVPDRFSGSILGNKAALTITGAQADDESDYYCVLYMGSGISYVFGTGTKVTVL
notes: Tested as a Fab made in E. coli; also called IGHV5-51*03
As to B1, the ECL signal came to 548 in assay [1]; 1950 in assay [2]; 873 in assay [3]; 742 in assay [4]; 464 in [5]; 854 in [6].

B2: Fab VH6-1_IGHD3-3*01_IGHJ4*01 & V4-3_IGLJ4*01 (Fab, V domains shown)
VH: QVQLQQSGPGLVKPSQTLSLTCAISGDSVSSNSAAWNWIRQSPSRGLEWLGRTYYRSKWYNDYAVSVKSRITINPDTSKNQFSLQLNSVTPEDTAVYYCAREYYDFWSGYYTDYFDYWGQGTLVTVSS
VL: QPVLTQPTSLSASPGASARLTCTLRSGINLGSYRIFWYQQKPESPPRYLLSYYSDSSKHQGSGVPSRFSGSKDASSNAGILVISGLQSEDEADYYCMIWHSSASFVFGGGTQLIIL
notes: Tested as a Fab made in E. coli; also called IGHV6-1*01
For the molecule B2, the ECL signal in assay [7] amounted to 423; in assay [8], 875; in [9], 434; in assay [10], 372.

B3: Fab VH1-46_IGHD6-6*01_IGHJ1*01 & L6_IGKJ1*01 (Fab, V domains shown)
VH: QVQLVQSGAEVKKPGASVKVSCKASGYTFTSYYMHWVRQAPGQGLEWMGIINPSGGSTSYAQKFQGRVTMTRDTSTSTVYMELSSLRSEDTAVYYCAREEYSSSSAEYFQHWGQGTLVTVSS
VL: not shown
notes: Expressed in E. coli as Fab: heavy chain with CH1 plus Flag and His tags from Plasmid A, kappa light chain constant region from Plasmid C; also called Fab No. 1
Turning to B3, the ECL signal stood at 333 in [11]; 317 in assay [12]; 231 in assay [13]; 401 in assay [14]; 429 in [15]; 3060 in assay [16]. The ECL signal in [17] was 291; in assay [18] it was 289; in assay [19], 253.

These data come from US20120058906A1 (published 2012).
